From paper PMC12521514
Each block holds one molecule with its values, some of them ahead of it.

Columns and labels:
[1] = target: ClpP-N12A (Staphylococcus aureus) (UniProt Q2G036); assay: negative stain EM
[2] = target: T1, Staphylococcus aureus ClpP wild type (Staphylococcus aureus), Q2G036; conditions: remark: other sources report otherwise
T1 chain: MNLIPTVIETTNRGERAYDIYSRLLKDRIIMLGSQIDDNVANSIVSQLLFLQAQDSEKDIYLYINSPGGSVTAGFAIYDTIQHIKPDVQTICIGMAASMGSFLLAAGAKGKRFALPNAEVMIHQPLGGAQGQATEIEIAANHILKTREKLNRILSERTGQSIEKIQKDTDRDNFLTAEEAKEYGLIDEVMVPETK

Molecule: ClpP-N12A (from UniProt Q2G036) (enzyme)
- stoichiometry N [1]: 14

- stoichiometry N [2]: 14
B1: Staphylococcus aureus ClpP wild type, Q2G036 1-195 (enzyme)
chain: T1 chain
